B1: Peroxisomal biogenesis factor 19 (Homo sapiens), P40855 (parent)
chain: MAAAEEGCSVGAEADRELEELLESALDDFDKAKPSPAPPSTTTAPDASGPQKRSPGDTAKDALFASQEKFFQELFDSELASQATAEFEKAMKELAEEEPHLVEQFQKLSEAAGRVGSDMTSQQEFTSCLKETLSGLAKNATDLQNSSMSEEELTKAMEGLGMDEGDGEGNILPIMQSIMQNLLSKDVLYPSLKEITEKYPEWLQSHRESLPPEQFEKYQEQHSVMCKICEQFEAETPTDSETTQKARFEMVLDLMQQLQDLGHPPKELAGEMPPGLNFDLDALNLSGPPGASGEQCLIM
partner: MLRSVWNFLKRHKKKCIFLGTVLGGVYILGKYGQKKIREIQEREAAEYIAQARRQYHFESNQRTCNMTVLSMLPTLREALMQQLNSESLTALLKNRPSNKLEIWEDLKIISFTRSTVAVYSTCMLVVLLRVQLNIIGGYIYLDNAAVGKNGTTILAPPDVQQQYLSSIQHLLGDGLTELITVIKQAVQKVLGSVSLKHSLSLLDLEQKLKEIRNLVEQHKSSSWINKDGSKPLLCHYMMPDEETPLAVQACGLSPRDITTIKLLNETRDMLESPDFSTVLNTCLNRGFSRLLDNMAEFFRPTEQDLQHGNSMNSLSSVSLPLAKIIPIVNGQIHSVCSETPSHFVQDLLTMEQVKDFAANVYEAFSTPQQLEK
B2: Peroxisomal biogenesis factor 19 (Homo sapiens), P40855 (parent)
chain: B1 chain
partner: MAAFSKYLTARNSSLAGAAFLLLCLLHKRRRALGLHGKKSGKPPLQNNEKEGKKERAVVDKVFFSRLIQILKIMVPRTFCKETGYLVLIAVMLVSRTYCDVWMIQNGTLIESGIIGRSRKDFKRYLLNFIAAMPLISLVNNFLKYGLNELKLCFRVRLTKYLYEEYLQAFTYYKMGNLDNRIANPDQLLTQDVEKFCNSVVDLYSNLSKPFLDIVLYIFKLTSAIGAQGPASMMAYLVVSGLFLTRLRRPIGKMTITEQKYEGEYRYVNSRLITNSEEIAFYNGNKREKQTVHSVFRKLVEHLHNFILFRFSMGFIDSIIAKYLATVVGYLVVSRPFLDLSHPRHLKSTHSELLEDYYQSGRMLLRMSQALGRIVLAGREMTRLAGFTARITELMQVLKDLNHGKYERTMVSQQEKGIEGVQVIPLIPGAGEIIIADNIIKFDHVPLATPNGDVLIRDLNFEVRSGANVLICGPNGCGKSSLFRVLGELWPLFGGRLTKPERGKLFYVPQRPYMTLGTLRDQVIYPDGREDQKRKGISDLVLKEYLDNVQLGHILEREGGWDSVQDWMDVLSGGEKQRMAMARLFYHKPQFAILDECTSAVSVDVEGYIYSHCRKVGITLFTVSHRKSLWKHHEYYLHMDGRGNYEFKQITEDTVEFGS

Variants of: B1
Conditions: with pex3_human PEX3, P56589

| Variant | effect of a mutation on the interaction |
| --- | --- |
| L26A | decreasing interaction |

Variants of: B1
Conditions: with pex3_human PEX3, P56589
Remark: another data set of the same source

| Variant | effect of a mutation on the interaction |
| --- | --- |
| L18A | disrupting interaction |

Variants of: B1
Conditions: with pex3_human PEX3, P56589
Remark: another data set of the same source

| Variant | effect of a mutation on the interaction |
| --- | --- |
| L18A | decreasing interaction |

Variants of: B1
Conditions: with pex3_human PEX3, P56589
Remark: another data set of the same source

| Variant | effect of a mutation on the interaction |
| --- | --- |
| L21A | disrupting interaction |

Variants of: B1
Conditions: with pex3_human PEX3, P56589
Remark: another data set of the same source

| Variant | effect of a mutation on the interaction |
| --- | --- |
| L21A | decreasing interaction |

Variants of: B1
Conditions: with pex3_human PEX3, P56589
Remark: another data set of the same source

| Variant | effect of a mutation on the interaction |
| --- | --- |
| L22A | disrupting interaction |

Variants of: B1
Conditions: with pex3_human PEX3, P56589
Remark: another data set of the same source

| Variant | effect of a mutation on the interaction |
| --- | --- |
| F29A | disrupting interaction |

Variants of: B1
Conditions: with pex3_human PEX3, P56589
Remark: another data set of the same source

| Variant | effect of a mutation on the interaction |
| --- | --- |
| D28A | decreasing interaction |

Variants of: B2
Conditions: with abcd3_human ABCD3, P28288

| Variant | effect of a mutation on the interaction |
| --- | --- |
| F29A | disrupting interaction |

Variants of: B2
Conditions: with abcd3_human ABCD3, P28288
Remark: another data set of the same source

| Variant | effect of a mutation on the interaction |
| --- | --- |
| L22A | disrupting interaction |

— IntAct's records for PubMed 21102411
